Some results are limits rather than exact numbers.

The results in this text go back to paper PMC8008188.

The test concerns the target bone sialoprotein, full length 90 kDa, of UMR106-01 osteoblastic cultures (rat (endogenous in UMR106-01)) (UniProt P13839). Nature of the test: co-elution on anion-exchange chromatography; EDTA extract of mineralizing UMR106-01 cultures on POROS 20 HQ in 0.05 M sodium acetate pH 5.2, 8 M urea, 0.1% CHAPS; 0 to 0.6 M NaCl gradient, then 2 M NaCl step; fractions read by dot blot and Western blot with anti-BSP and anti-6b antibodies.
Sequence of UniProt P13839 (P13839 17-320): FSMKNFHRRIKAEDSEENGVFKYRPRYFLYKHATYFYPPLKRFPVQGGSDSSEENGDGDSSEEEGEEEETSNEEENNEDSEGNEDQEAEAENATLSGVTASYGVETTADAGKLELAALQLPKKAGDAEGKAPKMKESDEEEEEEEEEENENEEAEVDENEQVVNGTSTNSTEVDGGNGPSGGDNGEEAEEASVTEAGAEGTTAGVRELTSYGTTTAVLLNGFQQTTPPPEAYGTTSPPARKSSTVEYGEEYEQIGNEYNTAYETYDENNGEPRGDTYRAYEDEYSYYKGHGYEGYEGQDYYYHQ

“60 kDa Col11a1 N-terminal domain (NTD) fragment with the “6b” exon sequence (domain or fragment)” displayed a percent of the fragment co-eluting with BSP of over 80%.
